The data set can be described thus: pNPA microplate assay (enzyme specific activity). Format: biochemical. The following applies: 30 °C, pH 7.2. Here is the method:
Into each of four wells of a 96-well microplate were added 170 μL of potassium phosphate buffer (50 mM, pH 7.2) and either 10 μL of 0.1 mg total protein/mL of cell lysate, or 10 μL of 0.02 mg total protein/mL of a spray-dried enzyme solution. The plate was covered and placed in a microplate reader (Molecular Devices SPECTRAmax® 384 Plus), then mixed for several seconds and equilibrated at 30° C. for 10 minutes. To each well of the plate was then simultaneously added 20 μL of a 30 mM pNPA solution prepared by mixing (immediately prior to use) 0.6 mL of 100 mM pNPA in acetonitrile with 1.4 mL of 50 mM potassium phosphate buffer (pH 7.2). The change in absorbance at 400 nm was measured over 1 minute of reaction time. The background rate of pNPA hydrolysis (subtracted from the rate of hydrolysis measured in the presence of enzyme) was separately measured in four wells by substituting 10 μL/well of potassium phosphate buffer (50 mM, pH 7.2) for cell lysate or enzyme-containing solution. The extinction coefficient for para-nitrophenol, measured at pH 7.2 in a 1-cm path length cell, was 10,909 L·cm^−1·mol^−1. One pNPA Unit of enzyme activity is equivalent to the amount of protein that catalyzes the hydrolysis of one micromole of pNPA in one minute.

Changes are numbered by the printed parent chain. In names and notes the source's numbering stands.

B1: T. maritima perhydrolase spray-dried enzyme powder: Spray-dried wild type acetyl xylan esterase from Thermotoga maritima, 27.8 wt % protein (protein, UniProt Q9WXT2 1-325, looked up)
Cephalosporin-C deacetylase: MAFFDLPLEELKKYRPERYEEKDFDEFWEETLAESEKFPLDPVFERMESHLKTVEAYDVTFSGYRGQRIKGWLLVPKLEEEKLPCVVQYIGYNGGRGFPHDWLFWPSMGYICFVMDTRGQGSGWLKGDTPDYPEGPVDPQYPGFMTRGILDPRTYYYRRVFTDAVRAVEAAASFPQVDQERIVIAGGSQGGGIALAVSALSKKAKALLCDVPFLCHFRRAVQLVDTHPYAEITNFLKTHRDKEEIVFRTLSYFDGVNFAARAKIPALFSVGLMDNICPPSTVFAAYNYYAGPKEIRIYPYNNHEGGGSFQAVEQVKFLKKLFEKG
modifications: spray-dried powder
notes: Spray-dried wild type acetyl xylan esterase from Thermotoga maritima, 27.8 wt % protein
Take B1: the “Specific activity of spray-dried enzyme powder” value is 86.1 pNPA U/mg protein.

B2: T. maritima C277S perhydrolase spray-dried enzyme powder: Spray-dried T. maritima acetyl xylan esterase C277S mutant, 25.5 wt % protein (protein, UniProt Q9WXT2 1-325, looked up, variant C277S)
Cephalosporin-C deacetylase: B1 Cephalosporin-C deacetylase with C277S
modifications: spray-dried powder
notes: Spray-dried T. maritima acetyl xylan esterase C277S mutant, 25.5 wt % protein
Consider B2, for which the “Specific activity of spray-dried enzyme powder” value came out at 129.5 pNPA U/mg protein.

The values above are taken from patent US20160205946A1, “ENZYMATIC IN SITU PREPARATION OF PERACID-BASED REMOVABLE ANTIMICROBIAL COATING COMPOSITIONS AND METHODS OF USE” (THE CHEMOURS COMPANY FC, LLC, priority 2009, published 2016).
